{"source": "the DeepSol protein solubility set"}
{"assay": "soluble on expression in E. coli; label from the status in PepcDB or PDB records"}
{"sequence": "SGSSTGDLVTRIQSAHRFDHDALFRFAADNVSGFPTNPSQFKVSQFGHGQSNPTFLIEVGSGSSLKRYVLRKKPPGKLLQSAHAVDREFQVLRALGEHTQVPVPKVFCLCTDPAVIGTAFYIMEFMEGRIFIDPKLPNVAPERRNAIYRATAKALASLHSADVDAIGLEKYGRRGNYCKRQIDRWFKQYLASTSEGKPERNPKMFELVDWLRKNIPAEDSTGATSGLVHGDFRIDNLVFHPSEDRVIGIIDWELSTLGNQMCDVAYSCMHYIVNVQLDKEHVSEGFETTGLPEGMLSMPEFLLEYCSASGKPWPAANWKFYVAFSLFRAASIYTGVYSRWLMGNASAGERARNTGVQANELVESALGYIARENVLPEHPPSVQRDVSPSYESLVDGSGRFIPNRKVLELRQKLIKFMETHIYPMENEFSKLAQSDMRWTVHPQEEKLKEMAKREGLWNLFVPVDSAARARRELAATENKHNLSGKSFDQLFGEGLTNLEYGYLCEIMGRSVWAPQVFNCGAPDTGNMEVILRYGNKEQISEWLIPLLEGRIRSGFAMTEPQVASSDATNIECSIRRQGDSYVINGTKWWTSGAMDPRCRVLILMGKTDFNAPKHKQQSMILVDMRTPGISVKRPLTVFGFDDAPHGHAEISFENVVVPAKNILLGEGRGFEIAQGRLGPGRLHHCMRLIGAAERGMELMAQRALSRKTFGKFIAQHGSFVSDLAKLRVELEGTRLLVLEAADHLDKFGNKKARGILAMAKVAAPNMALKVLDTAIQVHGAAGVSSDTVLAHLWATARTLRIADGPDEVHLGTIGKLELQRASKL", "soluble on expression in E. coli": "soluble"}
{"sequence": "MPDNLSAIFGTILDYAEEVAAGTSNENDERPPRTSLTKKQQKAVSILRNFSTNDQKQEISFQELSQNVLDDWDISNIKSSSVQQLVELLNLPRVQGVLWAAQEISAGRFAPQLPDVPFEVDEDDGVAVKIVRIVRRGEPLGATIKCERGKVYVARIMANGVADRSGCIQEGDRVLEVNGITVADKEPREIVKLLDKCDNGIITFKLIPAEINQKLKQKKSSHRYARALFDYDPWQDKRHPCPEAAISFRGGDILEILDEKDQYWWQTRKIGFGALARRKESHDDENRDDSKKVGLVPSEWLQCQSEIPENGIDTSDDFQSFLENHKGRFYESVFRWRNKKKRRRVVVLLGAPGVGRNEIRRQFFKVFADRFTNAIPHTSRPQRPNESDGVNYYFTSRSEMERMIERKEMLEYGEFRDNLYGTALKSVRKASEKGTVLLTPHPLAIENIRTWEFAPIVIFVQPPEFGEFKHTREVYRSQTTRSHSAASSSNISQNTAATSAARAFSDVEIRQIIDNSAQMEQKYRGYCDAIIRNVDLDTTMNELTGLIYQLESKATWMPMKWLDDIGE", "soluble on expression in E. coli": "not soluble"}
{"sequence": "FAADLNSNLNLFYTPSEIVNGKTDTGVKPEAGQRIRVGGMVTVGSMVRDPNSLHVQFAVHDSLGGEILVTYDDLLPDLFREGQGIVAQGVLGEDGKLAATEVLAKHDENYMPPEVAEAMGQKHEKLDYSQQKSATQ", "soluble on expression in E. coli": "soluble"}
{"sequence": "MSLAKNVNASVEETFKKSGIPVKVDKSNGQVTFGEKTMFDVDSDVLKPEAKEMLKMFVPKYIETIYKDYGDYISKIVIEGHTDDVGSYIYNLDLSQRRAYSVAKFIVGDEIGDYKYKDKVTKHIIAIGRSKAELIKNGDNSVNRDASRRVELKYEININQNKEGHHHHHH", "soluble on expression in E. coli": "soluble"}
{"sequence": "MPDYDLIAILGPTASGKTPFAAALAAELNTEIISADSRQIYRGMDLGTGKDLEDYTINGRQIPYHLIDIADPGYKYNVFEYQRDFLTAYETIKQKGCLPVLCGGTGLYLESVLKGYRLIPVPENQELRVRLAEKSLEELTAILSSYKTLHNSTDVDTVKRAIRAIEIEEYYAKTPIEEREFPQLNSLIIGVDIDRELRREKITRRLKQRLDDGMVEEVRRLLAEGIQPDDLIYYGLEYKYLTLYAIGKMTYDEMFTGLETAIHQFAKRQMTWFRGMERRGFTIHWVDASLPMEEKINFVKQKLKEFLEHHHHHH", "soluble on expression in E. coli": "soluble"}
{"sequence": "MSLSWEYEYYPHSLFCHHKEREGMHYIEGAYWSAEPDLPYLHKRKILMLVEDVWLLVDDIRCQGQHEALTQFILDKDVTYQDGKINQLRLWSEVDFDLEDTIISPKYNELERSSKLTKRQFFENQMLDYTIIAHESFEIIRHSVYQTDDREVENALAFEVKNDETDKLILLLSEDIRVGEKLCLVDGTKMRGKCLVYDKINERMIRLQCEGHHHHHH", "soluble on expression in E. coli": "soluble"}
{"sequence": "MPALSHGLSRFRGEAKPPGPSPRRSRESMAMDSKASMFTHGARPARIALFSGNYNYTLDGANKSLNRLVDHVQRTTGAQVRIYSPTSPTPAFAPVGELVSVPSVTIPFRRDYRLALGLPAAVRRDVEAFAPDLIHLSAPDLLGAAALKLGRRLKTPVVASLHTLFDSYLDYYGLGGLRALARRRLWQFYGACDFVMTPTPAIGEELRAQNLGVQVRTWARGVDADLFNPARRSADWRAAQGFDPDRPVIVFLGRLVMEKGLAAFADTIDRLAASGPSPQVLIIGDGPARAWFQERLPMATFAGFLTGEALATALASADIFLNPSTTETFGNVNLEAMASGLAIVCADAPNTRALLRDGRDAILCAPSDPASYAQALLSLCQDQNRLRRMGAKALDRSAAYRWTEILDEVVDIYAEALDARASAPSRAEVSPHELRARTGRRAGLIDAQAAALSTPLEHHHHHH", "soluble on expression in E. coli": "soluble"}
{"sequence": "MSSNHPLDQLYRQVIMDHYKNPRNRGVLEGTNVDVNMNNPTCGDRIHLTMKVEDGKVADVKFEGEGCSISMSSASMMTQAIKGKTVEEALRLAHIFSDMIQGKEYDDSVDLGDIEALQGVSKFPARIKCATLAWKALEKGLHNHEHEGR", "soluble on expression in E. coli": "not soluble"}
{"sequence": "MGQSEPIVLVIFTNKDNKSDKPNDKLISETAKSVMKEFAAGSKNAAKELNDLEKKYNAHIGVYALDTKSGKEVKFNSDKRFAYASTSKAINSAILLEQVPYNKLNKKVHINKDDIVAYSPILEKYVGKDITLKALIEASMTYSDNTANNKIIKEIGGIKKVKQRLKELGDKVTNPVRYEIELNYYSPKSKKDTSTPAAFGKTLNKLIANGKLSKENKKFLLDLMLNNKSGDTLIKDGVPKDYKVADKSGQAITYASRNDVAFVYPK", "soluble on expression in E. coli": "soluble"}
{"sequence": "MFERVREDIQSVFHRDPAARNALEVLTCYPGLHAVWLHRLAHGLWTSGWKWLARLVSNFGRWMTGIEIHPGARIGRRFFIDHGMGIVIGETAEIGDDVTLYQGVTLGGTTWNKGKRHPTLGNNVVVGAGAKVLGPFTVGEGAKVGSNAVVTKEVPPGATVVGIPGRIIMREDSEQQAKRQAMAEKLGFDAYGVSQDMPDPVARAIGQLLDHLQAVDGRLEGMCQALTALGSDYCAKDLPVLREEDFAGVKDEDGNPAA", "soluble on expression in E. coli": "not soluble"}
{"sequence": "GISVDKRIEQATSDFLAAAQAIDLQEHLISGYRSVDYQTELYQSYIKKEMANDPTLTQEAAEALVQTYSQPPGASEHHTGLAIDMSTVDTLNASDPSVAKAVQKIAPDYGFVLRFPEGKKTSTGVDYEDWHYRYVGKASARYMAQHNLTLEEYIAALKEKR", "soluble on expression in E. coli": "not soluble"}
{"sequence": "MSLELSQKKWKSFKISEIFRIESCKCGNASLLEDGDDLFYRGAKKNDNGVIRRVKRIDSLVSKGNCIMFICDGDGSCGYTNYISDDFIGSTTTSVGYNENLNVYIGTFITTILDMHKYKYSHSRKYRNSLLNEILILPINNDGIPDWKWIEEYMKSLSGSINTQIYDIIDTADGDRNIVKFFINKIEASDFKLWLQDNANMDVNNQMSLKDVKWKGFKLSELFNIERGCRLKKSNRITGNTLLITAGKENHGIAMYVEPPMNSEGNLINKIYKDRLTIDMFCNSFYQSENFICDDNILVLIEKQKMTKNIKHFIATILSMDIYKFSFTRQYRQKDFNKHIIMLPINDKGNLDWEWIEEYMKSLPYSDKETRLFVNTIEGHHHHHH", "soluble on expression in E. coli": "soluble"}
{"sequence": "MVKDLSDMSLKELWQLFPIFLVEHKEEWEDWYEEEKERLLHLLPSQSIKSISHIGSTAVPDIWAKNIVDILLEVPEKEDLQDFKKRLLDAGYLLMSEGEKRLSFNKGYTKDGFAEKVFHLHLRYQGDNDELYFRDYLREYPEVAKDYERLKLGLWEKYEHNRDAYTDAKSDFIRKYTQKAKKNDKGKDN", "soluble on expression in E. coli": "not soluble"}
{"sequence": "MGSDKIHHHHHHMEWILFDKDGTLIEFDSSWEKIGVRLVDQLLETFPVHDKEAAHRQLGIIDKKIKPDSVMGSGSLGEIIESFNGVTGKETSDWTRDTSQELIDSRVPENNWIDGVQETIQALRNEGYHIGIVTSDTKKGVDQFLEETQTRNLFDLVISTETHAEEKPHPKVLDPLFNAFDVEPGQVAIVGDTANDMKTAINANLGLGIGVLTGVAKKEELYDADVIINSAKDVKQVIEQYGK", "soluble on expression in E. coli": "not soluble"}
